In this assay the target is T1, recombinant human vaspin (visceral adipose tissue-derived serpin; serpinA12), 10×His fusion protein (human, UniProt Q8IW75 22-414).
T1 construct: the crystal structure model covers residues 37-366 and 378-414 (chain A); The natural signal peptide is probably absent from the construct; also called native human vaspin; 10×His–vaspin
T1 sequence: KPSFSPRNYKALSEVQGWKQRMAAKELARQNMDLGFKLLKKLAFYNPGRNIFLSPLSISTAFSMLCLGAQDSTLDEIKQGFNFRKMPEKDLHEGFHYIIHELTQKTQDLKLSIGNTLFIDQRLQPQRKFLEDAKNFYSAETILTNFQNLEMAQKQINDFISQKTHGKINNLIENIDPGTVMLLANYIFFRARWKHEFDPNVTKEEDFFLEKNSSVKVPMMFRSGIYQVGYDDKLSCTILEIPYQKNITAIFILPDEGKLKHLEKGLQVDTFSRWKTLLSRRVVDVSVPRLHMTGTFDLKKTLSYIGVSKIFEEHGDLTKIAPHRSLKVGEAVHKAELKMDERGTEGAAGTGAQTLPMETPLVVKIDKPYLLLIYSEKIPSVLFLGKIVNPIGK
Description: protease activity assay, association rate under pseudo-first-order conditions (residual activity, fluorogenic peptide substrate); tenfold molar excess of vaspin over hK7; remaining hK7 activity against time; k ass = k obs/[I] from a linear fit of ln activity against time. The following applies: both partners purified.

B1: recombinant human kallikrein 7 (hK7) (enzyme, UniProt P49862 23-253, looked up)
chain: IIDGAPCARGSHPWQVALLSGNQLHCGGVLVNERWVLTAAHCKMNEYTVHLGSDTLGDRRAQRIKASKSFRHPGYSTQTHVNDLMLVKLNSQARLSSMVKKVRLPSRCEPPGTTCTVSGWGTTTSPDVTFPSDLMCVDVKLISPQDCTKVYKDLLENSMLCAGIPDSKKNACNGDSGGPLVCRGTLQGLVSWGTFPCGQPNDPGVYTQVCKFTKWINDTMKKHR
notes: source: bought: R&D Systems
In the case of B1, the kon worked out at 7300 M⁻¹ s⁻¹.

Broadly, the kon is the rate constant with which the complex forms.

The values are drawn from article PMC3689916, “Vaspin inhibits kallikrein 7 by serpin mechanism” (Cellular and Molecular Life Sciences: CMLS, 2013).
